This note sets out measurements from patent publication US20260116966A1 (KEYMED BIOSCIENCES CHENGDU, published 2026).

Numbering of substitutions follows the chain as printed.

To fix the notation:
T1: Cynomolgus GPRC5D (Cynomolgus, UniProt Q9NZD1 1-343 (human entry))
T1 construct: Full length, on stably transfected cells (HEK293-cyGPRC5D, CHO-cyGPRC5D); also called cyGPRC5D
T1 chain: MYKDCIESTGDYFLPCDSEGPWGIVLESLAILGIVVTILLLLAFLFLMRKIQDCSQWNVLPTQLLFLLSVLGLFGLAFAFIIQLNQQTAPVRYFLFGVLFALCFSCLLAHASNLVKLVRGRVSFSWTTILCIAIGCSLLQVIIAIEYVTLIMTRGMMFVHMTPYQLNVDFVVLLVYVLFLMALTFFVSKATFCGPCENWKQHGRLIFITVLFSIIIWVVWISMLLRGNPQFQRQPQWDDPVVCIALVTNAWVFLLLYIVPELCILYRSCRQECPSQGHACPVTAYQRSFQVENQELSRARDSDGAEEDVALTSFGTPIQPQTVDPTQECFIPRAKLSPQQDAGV

B1: anti-GPRC5D chimeric antibody 10B1 (antibody, V domains shown)
VH: QVQLQQSGAELARPGASVKMSCKASGYIFTSYTMYWVKQRPGQGLEWIGYINPSSGYTNYNQKFKDKATLTADKSSSTAYMQLSSLTSEDSAVYYCARWGGNERLYYYAMDYWGQGTSVTVSS
VL: QIVLTQSPAIMSASPGEKVTITCSASSSVSYMYWFQQKPGTSPKLWIYGTSNLASGVPARFSGSGSGTSYSLTISRMEAEDAATYYCQQRSSYPLTFGAGTKLELK
B2: anti-GPRC5D chimeric antibody 18E7 (antibody, V domains shown)
VH: EVQLQQSGPELVKPGASVKMSCKASEYTFTNYVMYWVKQKPGQGLEWIGYINPYNDGTKYNEKFKGKATLTSDKSSSTAYMELSSLTSEDSAVYYCVRGGMLTTRSLFAYWGQGTLVTVSA
VL: DIQMTQSPSSLSASLGERVSLTCRASQRISGYLSWLQQKPDGTIKRLIYAASTLDSGVPKRFSGSRSGSDYSLTISSLESEDFADYYCLQYASYPPTFGGGTKLEIK
B3: anti-GPRC5D chimeric antibody 14D1 (antibody, V domains shown)
VH: B2 VH with E10D, E26G, T28K, N31S, P41T, L83F
VL: B2 VL with R28E, L33F
B4: anti-GPRC5D chimeric antibody 12A4 (antibody, V domains shown)
VH: B2 VH with A109T
VL: B2 VL
B5: anti-GPRC5D chimeric antibody 17D12 (antibody, V domains shown)
VH: B2 VH with E26G, N31S, G44V, K63R, K65T, V97A, A109L
VL: B2 VL with Q3V, T5S, R28E, L33F
B6: anti-GPRC5D chimeric antibody 15A6 (antibody, V domains shown)
VH: B2 VH with E26G, G44V, K65T, V97A, A109V
VL: B2 VL with R28E, L33F
B7: anti-GPRC5D chimeric antibody 19E2 (antibody, V domains shown)
VH: B2 VH
VL: B2 VL with S93N
B8: anti-GPRC5D chimeric antibody 15H5 (antibody, V domains shown)
VH: B2 VH with K23M, E26G, N31S, V97A, A109V, Q113H
VL: B2 VL with R28E, F98Y
B9: anti-GPRC5D chimeric antibody 1C1 (antibody, V domains shown)
VH: QAYLQQSGAELVRSGASVKMSCKASGYTFTSYNMHWVKQTPGQGLEWIGYIYPGNGGTNYNQKFKAKATLTADTSSSTAYMQISSLTSEDSAVYFCARGYGYRYWYFDVWGAGTTVTVSS
VL: NIVLTQSPAIMSASPGEKVTMTCSASSSVRFMHWYQQKSGTSPKRWIYDTSKVASGVPARFSGSGSGTSYSLTIRSMEAEDAATYYCQQWSSNPLTFGAGTKLELK
B10: anti-GPRC5D chimeric antibody 10E8 (antibody, V domains shown)
VH: EVQLQQSGPELVKPGASMKISCKASGYSFTGYTMNWVKQRHGKNLEWIGLINPYNGGTSYNQKFKGKATLTVDKSSSTAYMELLSLTSEDSAVYYCARLPIRNGMDYWGQGTSVTVSS
VL: DIVLTQSPATLSVTPGDSVSLSCRASQSISNNLHWYQQKSHESPRLLVKFASLSISGIPSRFSGSGSGTDFTLSINSVETEDFGMYFCQQSNSWPQTFGGGTKLEIK

T2 sequence (Q9NZD1 whole entry): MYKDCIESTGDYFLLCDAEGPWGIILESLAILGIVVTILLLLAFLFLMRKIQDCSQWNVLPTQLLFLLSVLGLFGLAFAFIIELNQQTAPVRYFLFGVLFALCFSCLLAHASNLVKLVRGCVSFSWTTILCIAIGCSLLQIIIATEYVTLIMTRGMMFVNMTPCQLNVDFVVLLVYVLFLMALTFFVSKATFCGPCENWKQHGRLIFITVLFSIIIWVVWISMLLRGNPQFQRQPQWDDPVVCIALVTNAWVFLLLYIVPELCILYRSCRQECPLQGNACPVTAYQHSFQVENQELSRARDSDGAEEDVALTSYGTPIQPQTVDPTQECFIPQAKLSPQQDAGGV

One assay has as its target T2, human GPRC5D (human, UniProt Q9NZD1 1-345).
T2 construct: Full length, on stably transfected cells (HEK293-hGPRC5D, CHO-hGPRC5D); Also used here for the endogenous GPRC5D of the GPRC5D+ myeloma lines MM.1R, MM.1S and NCI-H929; also called hGPRC5D; G-protein-coupled receptor family C group 5 member D
Put plainly: flow cytometry on CHO-hGPRC5D cells. A general note: A flow cytometer gives signals particle by particle.
Protocol: (§1) The binding of the antibodies to human and Cynomolgus GPRC5D stably transfected cells was detected by flow cytometry. […] Then, 100 μl/well of the cell suspension was added to a 96-well U-shaped plate, and centrifuged at 300 g for 5 min. The supernatant was discarded. 100 μL per well of serially diluted antibody was added (initial concentration: 200 nM, 3-fold dilution, 12 gradients), and incubated at 4° C. for 45 min. The secondary antibody 50 μL/well of Alexa Fluro647 labeled goat anti-human IgG Fc (1:300 dilution) was added, incubated on ice for 45 min, and detected by flow cytometry.
On to B1, for which the binding result is “binds”.

Turning to B2, the binding result was “binds”.

Take B3: the binding result is listed as “binds”.

For B4, the binding result is on record as “binds”.

As to B5, the binding result is “binds”.

For the molecule B6, the binding result is “binds”.

For B7, the binding result was “binds”.

As to B8, the binding result was “binds”.

With B9, the binding result was “binds”.

In the case of B10, the binding result was “binds”.

For another assay, the target named is T1, Cynomolgus GPRC5D. Briefly: flow cytometry, CHO-cyGPRC5D cells.
Protocol: as §1
As for B1, the binding result is “binds”.

Regarding B2, the binding result is “binds”.

Consider B3, for which the binding result is “binds”.

For the molecule B4, the binding result is “binds”.

Take B5: the binding result is given as “binds”.

As to B6, the binding result is listed as “binds”.

In the case of B7, the binding result was “binds”.

Take B8: the binding result is reported as “binds”.

Regarding B9, the binding result was “binds”.

As to B10, the binding result is “binds”.
